Values belong to the substance of their own block, whether it stands above or below them.
Legend:
[1] = test system: P68135; experiment: depolymerisation of single filaments in a microfluidic flow (fluorescence microscopy); filaments grown from MgATP-actin, depolymerised in F-buffer (pH 7.8, 100 mM KCl, 1 mM MgCl2); velocities from an exponential fit of 1/vdepol against the age of F-actin, and from a direct fit of length …; conditions: other: depolymerisation of single filaments in a microfluidic flow (fluorescence microscopy)
[2] = target: Actin purified from rabbit muscle (rabbit) (UniProt P68135); experiment: depolymerisation of single filaments in a microfluidic flow (fluorescence microscopy); filaments grown from MgATP-actin, depolymerised in F-buffer (pH 7.8, 100 mM KCl, 1 mM MgCl2); velocities from an exponential fit of 1/vdepol against the age of F-actin, and from a direct fit of length against time; room temperature
[3] = target: Actin purified from rabbit muscle (rabbit) (UniProt P68135); experiment: depolymerisation of single filaments in a microfluidic flow (fluorescence microscopy); MgADP-actin filaments depolymerising at different profilin concentrations; saturation curve of the off-rate fitted assuming profilin in rapid equilibrium with the barbed end; room temperature
[4] = target: Actin purified from rabbit muscle (rabbit) (UniProt P68135); experiment: depolymerisation of single filaments in a microfluidic flow (fluorescence microscopy); CrATP-actin filaments (as ADP-Pi-actin) depolymerising at different profilin concentrations; saturation curve of the off-rate fitted assuming profilin in rapid equilibrium with the barbed end; room temperature

Substance: Actin purified from rabbit muscle
global depolymerization velocity of ADP-Pi-actin subunits at the barbed end (direct fit of length against time) [1]: 1.5 subunits/s
global depolymerization velocity of ADP-Pi-actin subunits at the barbed end (dissociation as ADP-Pi-actin, or Pi release and then dissociation; exponential fit) [1]: 1.5±0.4 subunits/s

depolymerization velocity of ADP-actin subunits at the barbed end (direct fit of length against time) [2]: 6 subunits/s
depolymerization velocity of ADP-actin subunits at the barbed end (exponential fit) [2]: 6.2 subunits/s
Substance: Actin purified from rabbit muscle (from UniProt P68135 1-377) (natural protein)

koff [3]: 51.6 s⁻¹
koff [4]: 4.7 s⁻¹
Substance: profilin-actin (from UniProt P62962 1-140; P68135 1-377) (complex)

Source: article PMC3181223
